Assay: soluble on expression in E. coli; label from the status in PepcDB or PDB records

Sequence | soluble on expression in E. coli
MGHHHHHHSHMKAFSPVRSVRKNSLSDHSLGISRSKTPVDDPMSLLYNMNDCYSKLKELVPSIPQNKKVSKMEILQHVIDYILDLQIALDSHPTIVSLHHQRPGQNQASRTPLTTLNTDISILSLQASEFPSELMSNDSKALCG | soluble
MGSDKIHHHHHHMIRAGIIGATGYTGLELVRLLKNHPEAKITYLSSRTYAGKKLEEIFPSTLENSILSEFDPEKVSKNCDVLFTALPAGASYDLVRELKGVKIIDLGADFRFDDPGVYREWYGKELSGYENIKRVYGLPELHREEIKNAQVVGNPGCYPTSVILALAPALKHNLVDPETILVDAKSGVSGAGRKEKVDYLFSEVNESLRPYNVAKHRHVPEMEQELGKISGKKVNVVFTPHLVPMTRGILSTIYVKTDKSLEEIHEAYLEFYKNEPFVHVLPMGIYPSTKWCYGSNHVFIGMQMEERTNTLILMSAIDNLVKGASGQAVQNMNIMFGLDETKGLEFTPIYP | soluble
MGSDKIHHHHHHMLKQLILENWKSFRYAELPLDPLTVLIGTNASGKSNVVEALEFLQRIARGENVEAALAGDKTLVSIRGGVEWAARKQETGFTLQTLIQGEDETQDYLYTVQIQTIPEVRVIQEQITFENINQDNVVYNKKHLTVKNPIFPTKSGLENLELHVDINDLMQFFPPDQNILLGDKDFLETLNNVLLPFRNKACKFVVASLKNIFILNPIASNMRNYSRLADDLESDASNIAGVLAALPDDLKLEIELTLSTYIKDLPEGDIKKVWAEKVGRFGTDAMLYCQEEWKPGHSTDIDARSMSDGTLRFLAILTALLTRPEGSQIVIEEIDNGLHPSRAKLLVKILREIGSKRNIDILLTTHNPALLDALGPDTVPFVVVAHRDAETGESKLTLLENIDNFSKLFASYSLGEMTTKGAIERSLSHSE | not soluble
GAMDPAVMKIEYYSQVLDMEWGVNVLYPDANRVEEPECEDIPVLYLLHGMSGNHNSWLKRTNVERLLRGTNLIVVMPNTSNGWYTDTQYGFDYYTALAEELPQVLKRFFPNMTSKREKTFIAGLSMGGYGCFKLALTTNRFSHAASFSGALSFQNFSPESQNLGSPAYWRGVFGEIRDWTTSPYSLESLAKKSDKKTKLWAWCGEQDFLYEANNLAVKNLKKLGFDVTYSHSAGTHEWYYWEKQLEVFLTTLPIDFKLEERLT | soluble
MGSDKIHHHHHHMNSRTSFVSPDDRFSMVYFKMEHEGCWTGITKEHNIAIHTLKIIPLKDRNNIYGLFEIRAQGKKEFRDFLRRINREKTIHRVMAYSPSELRKNVYFIDLYEVYGGMIEGILNDYQSIFEYDVVRRGVEEKYAIIPSDRVLELKNSINGLGKIYQFKARCIKNFYYAFSPFLSYTPSEMQIIAEAVSRGYYSIPRHVGIRDLAEYFGMSKSTVQEYLRKAEQKTMNNLKLLKLMNEMKE | not soluble
MSLAPRLKLRDITFFERPVQFARPFRFGAITINATTQLFVRVEIEVEGRGSAVGASAELLVPKWFDKRPEFSPAQTVDGLRRSLEIARGLYLARTGFLTAFDLHAACIGAQIATCAKKNIPALAAAYGLAEIDKAILDALLRGVETGFFDGMAGNVAGIDARLSPDLKDAEIAAFLSSRKPLPRVAIRHTVDLDDTVEGKGGVADAHENAGASYFKLKLRGDPAADAARLARIGKELDTLGRSYKVTLDANEQYADLAALQALMDRLDHDSDLRPIASRLLYVEQPMPRDITRQSPLGSLAARGFIIDEADDSYDAFPAARALGYHGISSKSCKGLYKSIVSATRAAKWSGGGEKFFVTGEDLTCQAGLAVQQDLALGAFLGVTHAERNGHHYVDGFGDTPAAEAAAFAAAHPDLYADAGQGIRLSIHDGDLLTGSLHAAGFATSVHPDWSALRPLEQPTSLQEQLAEGHHHHHH | soluble
MGHHHHHHSHMFEFKHIKAFDRAFADNPGPMVVFATPGMLHAGQSLQIFRKWAGNEKNMVIMPGYCVQGTVGHKILSGQRKLEMEGRQVLEVKMQVEYMSFSAHADAKGIMQLVGQAEPESVLLVHGEAKKMEFLKQKIEQELRVNCYMPANGETVTLPTSPSIPVGISLGLLKREMAQGLLPEAKKPRLLHGTLIMKDSNFRLVSSEQALKELGLAEHQLRFTCRVHLHDTRKEQETALRVYSHLKSVLKDHCVQHLPDGSVTVESVLLQAAAPSEDPGTKVLLVSWTYQDEELGSFSHLC | not soluble
MSNDIEKSIQQWLEKKLEERGHGAQIELAAYLGIHPSTISRMLNPYKNGKSRSISIGELVKIAEFFKVSPPQISSLMLIKNS | not soluble
MSLIKMIALDLDETLLNTDKTISEENATALRQLHEAGIKIVLCTGRPINAIWHYLEQLGLTTDDDYTITFNGALVIQNSTKEALAQSGLSRNDFEPLHAFAAANHYPMDVLDFDQVYPIADLTPSVYEQMLKAPMKFIPTAFADLPDQLFSKAVMATDAAILDQVVAKLTPELTKLYHVVRSQPKILEFLAADMDKAVGLGQLLTHFGWDFSDLMAFGDAENDLGMIKAAGDGVAMQNGQPAVKAAANHQTPVDNNHAGVAAYLQHVFPELLGEGHHHHHH | soluble
MSLSARAEDINNIENKTIGHGRTSYNKSVSGRVENIRLSTESVDYVVLGSGDTFTFNGIVGERTKERGYQVASVIMDGDFTDGLGGGICQTSTTLYNAVLDAGLTVLERHPHSLPVGYVEEGMDAMVSWGSADLRFRNDFDYPVVIRGGVDKEKGEVWFDIREGHHHHHH | soluble
MAHHHHHHMPDDRRRASRTDDALVAHRPADSASPVERRTRVDPRTHTKSLYQRGRDGSEMYASYYNSNDDPAFQERFNRHSNGNAFVQSAQFTYVSHGGCGGRNHTVVKERQRPVVVEEPDDADRHEASTDSGNNANVHAKHKDKEKRRSSKQDPIVEEPDSEDDYNDADSRAYRRGGKKGEFGSHPDALEFWRDPWGMESIMAEMMQPPLGFGDAFPFTSRRAPAQRRLKSPSVSNESKWQLSPHTRGGVMSSPFTGDLFGTGGPESPFRMMEAMQYHMHQQRAAMFGGVDPFRHFM | not soluble
GVKLQQSGPEVVKPGASVKISCKASGYSFTNFYIHWVKQRPGQGLEWIGWIFHGSDNTEYNEKFKDKATLTADTSSSTAYMQLSSLTSEDSAVYFCARWGPHWYFDVWGQGTTVTVSSAKTTPPSVYPLAPGNSMVTLGCLVKGYFPEPVTVTWNSGSLSSGVHTFPAVLQSDLYTLSSSVTVPSSTWPSETVTCNVAHPASSTKVDKKIAAAG | soluble
MILHPRPSPIAAAMYQLRDIGVDAIILHGPSGCCFRTARLLEIDGIRVFTSAMGENDFIFGAMDKLRDVIAEVLEYLKKETPKSEKYKIGIVGTCASMIIGEDLESLIDDFDDIIIPVDIHSGLVDNTVGAIRAMDGALNAGLIDYSEYERQKKMLEHHHHHH | soluble
MGKKNEKIVEEAEKVEAETMEVDEQPQETPQVDDEEDLNVPSKKKMEILDPKSFEQDPSNLTLIMYEEDHTIGNSIKHILSRMDEVEFCGYNVPHPLEDKILFRVQTKDGINALEVLAKAFESVEQIFSTIRGKFEESYEQSQS | soluble
MASIKLYFDKRVNRKDGKFPLKINVTHKRQQALINLGVLLSPDQWDSTKGKVINGPNKSFLNGYISQRVHCAETELLNLRIAGKLDLMTGKQFKEHLQRILLRGKLEEKQEETGCSFVQYYTRFVEGKKNPQTKAVYQYTLDRICRFVDVPDKFRFEDVTYAWLKSFEIHLSETSKVNSISIHMRNIRAVFNDALNTETISCYPFRRFKIKQEATAKRALTPEELVTLRDYPCEEHQKQYVDIFMLIFYLVGINTVDLCRLEKIRNGRIEYRRAKTKKIYNIKVEPEAAEIIERYKGSKYLLNILERYKNYKDYAHRLNENLQEIGSVELVEKVINGKRRRVKKRFPLFPELTVYWARHTWATIAHKIGVSKDVISLALGHEFGCKTTSIYIDYDMEKVDKANRQVLDYLENLK | not soluble
MKLINTTNSHSQLVKSQLESTDATLVEVYSAGNTDVIFTQAPLHYEILISNKHRAIREPEIETIQEFFLKRKIDKASVDEANIKTLYSEKLIGISIPIK | not soluble
SNAMSSEELEQVWSNIKSEARALAECEPMLASFFHATLLKHENLGSALSYILANKLANPIMPAIAIREVVEEAYRSDAHMIVSAARDILAVRLRDPAVDKYSTPLLYLKGFHALQAYRIGHWLWAQDRKALAIYLQNQVSVAFGVDIHPAATIGCGIMLDHATGIVIGETAVVENDVSILQSVTLGGTGKTSGDRHPKIREGVMIGAGAKILGNIEVGRGAKIGAGSVVLQSVPAHTTAAGVPARIVGKPESDKPSLDMDQHFNGSIQGFEYGDGI | soluble
MAHHHHHHMYPKNELQVLNILYIIIYSFFVDEEIDNIKDETQEIQAYNYTSLMIPSDVSSENNSDTKHFSVVTISFFILYSENIKQVLNLQESIDIQKIKEKKEKKKKQEVFKDIMCSDIKYEKKIKRKKKKIFENKRSSKKNKNNIRDFINLEKDIIITKTLMYNKKKKLDDIYKYTSKKEKTINNLNKNMIKEAAHMQELLIENFKKTEDLIKVRRGGGKIKKKEKTQRIYIHIYIHIYIHI | not soluble
MSVKPVDLNKLRSTHENLYETVVAISKKAREIQEEERAELEERLLPYKEMIRNPASESESEKVFPEQIAISVAFECREKPTQQALAQYLDHQYDYVLEKSPETKVAQNEDEDESDRD | not soluble
MKTIGLLGGMSWESTIPYYRLINEGIKQQLGGLHSASLLLHSVDFHDIEVCQRRDEWDKAGDILAQAAHGLQQAGAEGIVLCTNTMHKIAHVIESRCSLPFLHIADATGRAIARQGLHRVALLGTRYTMEQDFYRGRLEQQFAIETIVPEADDRARINQVIFDELCQGTFTDASRHYYLQVIEQLAAQGAQGVIFGCTEIGLLVPQTQSALPVFDTTAIHAADAVSFMLSSSAPE | soluble
MSLDFKAIQALTANDMAKVNETIHAQLNSDVSLINQLGFYIISGGGKRLRPLLAVLSAKALGYQGSHHTTAAAFIEFIHTATLLHDDVVDESDLRRGKATANAAFGNAASVLVGDFIYTRSFQMMTELGSMKILKLMSDAVNVIAEGEVQQLMNCNDPDTTEASYMQVIYSKTARLFEAATQIGAILCDASPEVELAMQNYGKYLGTAFQLIDDVMDYTSDGDEMGKNVGDDLAEGKPTLPLLYAMQHGNPEQAAMIREAIEKANGMSRLNEILAAMEQTGSLQYTIEKALHEADKAIAELAILPESEYKQALITLAHMAVNRSKEGHHHHHH | soluble
MGCTLSAEDKAAVERSKMIDRNLREDGERSRRELKLLLLGTGESGKSTFIKQMRIIHGSGYSDEDKRGFTKLVYQNIFTAMQAMIRAMDTLKIPYKYEHNKAHAQLVREVDVEKVSAFENPYVDAIKSLWNDPGIQECYDRRREYQLSDSTKYYLNDLDRVADPSYLPTQQDVLRVRVPTTGIIEYPFDLQSVIFRMVDVGGQRSERRKWIHCFENVTSIMFLVALSEYDQVLVESDNENRMEESKALFRTIITYPWFQNSSVILFLNKKDLLEEKIMYSHLVDYFPEYDGPQRDAQAAREFILKMFVDLNPDSDKIIYSHFTCATDTENIRFVFAAVKDTILQLNLKEYNLV | soluble
MTATKQTAQVTAVADGTVVTPKGFQAAGVHAGLRYSKNDLGVILCDVPASAAAVYTQSHFQAAPLKVTQASLAVEQKLQAVIVNSACANACTGEQGLKDAYEMRELCAKQFGLALHHVAVASTGVIGEYLPMEKIRAGIEKLVPGATMADAEAFQTAILTTDTVMKRACYQTTVDGKTVTVGGAAKGSGMIHPNMATMLAFITTDANVSSPVLHAALRSITDVSFNQITVDGDTSTNDMVVVMASGLAGNDELTPDHPDWENFYEALRKTCEDLAKQIAKDGEGATKLIEVRVRGAKTDEEAKKIAKQIVGSNLVKTAVYGADANWGRIIGAIGYSDAEVNPDNVDVAIGPIVMLKGSEPQPFSEEEATAYLQQETVVIEVDLHLGDGFGVAWGCDLTYDYVKINASYRT | not soluble
